Patent publication US12068729
pKd: −log10 of the molar value.

How the values were obtained:
[1] = molecular target: human Factor XII (FXII), Enzyme Research Laboratories Cat #1212 (human); assay: SPR Biacore, mAb captured by anti-hFc, 25 C
[2] = molecular target: human activated Factor XII (FXIIa), Enzyme Research Laboratories Cat #1212a (human); assay: SPR Biacore, mAb captured by anti-hFc, 25 C
[3] = molecular target: human Factor XII (FXII), Enzyme Research Laboratories Cat #1212 (human); assay: SPR Biacore, mAb captured by anti-hFc, 37 C
[4] = molecular target: human activated Factor XII (FXIIa), Enzyme Research Laboratories Cat #1212a (human); assay: SPR Biacore, mAb captured by anti-hFc, 37 C

Substance	100 nM Ag Bound (RU) [1] [RU]	pKd [1]	koff [1] [s⁻¹]	kon [1] [M⁻¹ s⁻¹]	t½ [1] [min]	100 nM Ag Bound (RU) [2] [RU]	pKd [2]	koff [2] [s⁻¹]	kon [2] [M⁻¹ s⁻¹]	t½ [2] [min]	100 nM Ag Bound (RU) [3] [RU]	pKd [3]	koff [3] [s⁻¹]	kon [3] [M⁻¹ s⁻¹]	t½ [3] [min]	100 nM Ag Bound (RU) [4] [RU]	pKd [4]	koff [4] [s⁻¹]	kon [4] [M⁻¹ s⁻¹]	t½ [4] [min]
Comparator 2, a human monoclonal antibody against human FXII having VH/VL sequences of antibody 15H8 according to U.S. Pat. No. 9,574,013 (Vanderbilt Univ./Aronora)	86.1	7.43	0.00247	66100	4.7	197	8.53	0.00451	1.54e+06	2.6	83.8	7.34	0.0542	1.2e+06	0	187	8.56	0.02	7.25e+06	1
Comparator 1, a monoclonal antibody against human FXII/FXIIa having VH/VL sequences of antibody 3F7 according to U.S. Pat. No. 9,518,127 (CSL Behring GmbH)	9.5	–	–	–	–	297	8.60	0.000996	392000	11.6	9.9	–	–	–	–	312	8.08	0.00515	624000	2
Isotype control (antibody)	10	–	–	–	–	0.1	–	–	–	–	10.3	–	–	–	–	-2.7	–	–	–	–
